The subject of test [1] is ICR mice. The test can be described thus: Effect of anti-Aβ antibody intravenous administration on mouse cognitive function impairment by AD patient CSF (Y-maze test, Example 4). It counts as in vivo. The conditions noted are these: next day 10 μl AD patient CSF intraventricular, FIG. 4. The method, then:
Next, mice that had intravenous administration of anti-Aβ oligomer antibody were measured for changes in cognitive function after AD patient CSF administration, using a Y-maze test. As the anti-Aβ oligomer antibody, an anti-Aβ oligomer humanized antibody 6E4HV0LV0 was produced according to the method disclosed in WO2011/016567 and known methods, and used in the experiment.
ICR mice were intravenously administered with 3 mg/kg of human IgG4 (Sigma-Aldrich), or 0.3 mg/kg, 1 mg/kg, or 3 mg/kg of 6E4HV0LV0.
On the next day, 10 μl of physiological saline (hereinafter, “Sham”) or the same amount of AD patient CSF (Precision Med) was administered into the cerebral ventricles of the mice under isoflurane anesthesia. Each mouse was then tested by Y-maze test in the same manner as in Example 1 to determine spontaneous alternation (%). The AD patient CSF and the physiological saline were administrated in 5 μl dose into each of the left and right cerebral ventricles.
In the following, mice that had intravenous administration of human IgG4, and intraventricular administration of Sham will be identified by using the notation “human IgG4 i.v.-Sham administered group.” Similar notations are used for mice administered with other samples.

In test [2] the test system is ICR mice. The test can be described thus: Effect of anti-Aβ antibody pretreatment of AD patient CSF on mouse cognitive function impairment (Y-maze test, Example 5). It counts as in vivo. The conditions noted are these: 10 μl intraventricular, FIG. 5. As to the method: For the purpose of evaluating a sample that more accurately reflects the actual clinical sample, the cognitive function of mice administered with an AD patient CSF pretreated with 6E4HV0LV0 was measured by Y-maze test.
6E4HV0LV0 was added to AD patient CSF (Precision Mod) to make the final concentration 1 ng/ml, 10 ng/ml, or 100 ng/ml, and the mixture was incubated at room temperature for about 1 hour.
Artificial cerebrospinal fluid [artificial spinal fluid (Otsuka Pharmaceutical Co., Ltd.) supplemented with 0.02 w/v % human serum albumin (Sigma-Aldrich)](hereinafter, “vehicle”) was added to AD patient CSF or physiological saline (hereinafter, “Sham”), and the mixture was incubated at room temperature. The prepared sample was preserved at −80° C., and used for the experiment after being thawed at room temperature on the day of the Y-maze testing.
The sample (10 μl each) was administered into the cerebral ventricles of ICR mice under isoflurane anesthesia, and each mouse was tested by Y-maze test in the same manner as in Example 1 to determine spontaneous alternation (%). Each sample was administrated in 5 μl dose into each the left and right cerebral ventricles of mice.
In the following, the sample with the AD patient CSF plus the vehicle will be identified by the notation “vehicle-AD CSF”. Similar notations are used for other samples.

Test [3] deals with ICR mice. The test can be described thus: Blind measurement of changes in cognitive function of mice after 6E4HV0LV0 pretreatment of CSF (Y-maze test, Example 6). Format: in vivo, mouse. The conditions noted are these: for Percentage improvement by 6E4HV0LV0 treatment (%): 10 μl intraventricular; for improvement of spontaneous alternation by 6E4HV0LV0 pretreatment: 10 ng/ml. As to the method: The cognitive function of mice administered with multiple normal CSFs or AD patient CSFs was measured in blind experiment by performing a Y-maze test in the same manner as in Example 1. The effect of 6E4HV0LV0 pretreatment was also examined at the same time. The experiment was conducted by separating testers who is responsible for dispensing normal CSFs or AD patient CSFs and preparing a 6E4HV0LV0-pretreated AD patient CSF for blind experiment, and who is responsible for administering the samples to mice, and conducting the Y-maze test.
Tester (A) randomly assigned numbers to the dispensed normal CSFs (Precision Med) and AD patient CSFs (Precision Med) for blind experiment. For the AD patient CSFs, samples were also prepared by adding 6E4HV0LV0 to each dispensed CSF to make the final concentration 10 ng/ml, and incubating the mixture at room temperature for about 1 hour. The dispensed and prepared CSF samples were all preserved at −80° C. until the day of the Y-maze testing.
On the day of the Y-maze testing, tester (B) received the samples prepared by tester (A) for blind experiment, and thawed the samples at room temperature. Each sample (10 μl) or physiological saline (10 μl; hereinafter, “Sham”) was administered into the cerebral ventricles of ICR mice under isoflurane anesthesia, and the mice were tested by Y-maze test in the same manner as in Example 1 to determine spontaneous alternation (%). The sample and the physiological saline were administrated in 5 μl dose into each of the left and right cerebral ventricles of mice.
A Y-maze test that used the AD patient CSFs pretreated with 6E4HV0LV0 was conducted at the same time. Percentage improvement of mouse spontaneous alternation by 6E4HV0LV0 pretreatment was calculated for each mouse by using the Formula (3) below. The results are shown under the column heading “Percentage improvement by 6E4HV0LV0 treatment (%)” in Table 1. Percentage improvement (%) of mouse spontaneous alternation by 6E4HV0LV0 pretreatment={(spontaneous alternation of mouse administered with AD patient CSF pretreated with 6E4HV0LV0)−(spontaneous alternation of mouse administered with the same AD patient CSF without 6E4HV0LV0 pretreatment)}/{(spontaneous alternation of Sham administered group)−(spontaneous alternation of mouse administered with the same AD patient CSF without 6E4HV0LV0 pretreatment)}×100 Formula (3)

B1: 6E4HV0LV0: anti-Aβ oligomer humanized antibody, VH SEQ ID NO: 1, VL SEQ ID NO: 2, produced according to WO2011/016567 (antibody, V domains shown)
VH: QVQLVQSGAEVKKPGASVKVSCKASGYTFTSYWMHWVRQAPGQGLEWMGEINPRNGGTNNNENFKRRVTITADTSTSTAYMELSSLRSEDTAVYYCARDGNYDPFAYWGQGTLVTVSS
VL: DIVMTQSPLSLPVTPGEPASISCRSSQSLVHSNGNTYLHWYLQKPGQSPQLLIYKVSNRFSGVPDRFSGSGSGTDFTLKISRVEAEDVGVYYCSQSTHVPPYTFGQGTKLEIK
Take B1: the “spontaneous alternation compared to the human IgG4 i.v.-AD CSF administered group” value in the test with ICR mice [1] (3 mg/kg i.v.) is on record as “significantly higher”. In addition, in the test on ICR mice [1] (3 mg/kg i.v.), the “spontaneous alternation compared to the human IgG4 i.v.-Sham administered group” value is recorded as “recovering to the same levels”. The “spontaneous alternation, dose response” value with ICR mice [1] (6E4HV0LV0 0.3, 1 or 3 mg/kg i.v.) is listed as “increased with increase in the dose”. In addition, the “spontaneous alternation compared to the vehicle-AD CSF administered group” value in the test with ICR mice [2] (AD patient CSF pretreated at final concentration of 10 ng/ml or 100 ng/ml) is “higher”. Moreover, the “spontaneous alternation compared to the vehicle-Sham administered group” value with ICR mice [2] (AD patient CSF pretreated at final concentration of 100 ng/ml) is “recovering to the same levels”. For the same molecule, the “Percentage improvement by 6E4HV0LV0 treatment (%)” value (“Percentage improvement … (%)” below) with ICR mice [3] (AD patient CSF 8006_Visit 3 pretreated with 10 ng/ml) is 80.2%; in the test on ICR mice [3] (AD patient CSF 8014_Visit 4 pretreated with 10 ng/ml), 59.7%; with ICR mice [3] (AD patient CSF 8026_Visit 2 pretreated with 10 ng/ml), 14.5%; in the test on ICR mice [3] (AD patient CSF 8029_Visit 2 pretreated with 10 ng/ml), −11.8%; in the test with ICR mice [3] (AD patient CSF 8056_Visit 9 pretreated with 10 ng/ml) it was 86.8%; in the test with ICR mice [3] (AD patient CSF 8057_Visit 8 pretreated with 10 ng/ml), 59.3%. The “Percentage improvement … (%)” value in the test on ICR mice [3] (AD patient CSF 8060_Visit 6 pretreated with 10 ng/ml) was 46.0%; with ICR mice [3] (AD patient CSF 8061_Visit 5 pretreated with 10 ng/ml) it was 65.6%; in the test with ICR mice [3] (AD patient CSF 8076_Visit 8 pretreated with 10 ng/ml) it was 68.3%; in the test on ICR mice [3] (AD patient CSF 8091_Visit 5 pretreated with 10 ng/ml) it was 56.3%; with ICR mice [3] (AD patient CSF 8092_Visit 3 pretreated with 10 ng/ml), 87.7%; with ICR mice [3] (AD patient CSF 8108_Visit 6 pretreated with 10 ng/ml) it was 82.0%. Also, the entries for the “Percentage improvement … (%)” value with ICR mice [3] (AD patient CSF 8109_Visit 5 pretreated with 10 ng/ml), with ICR mice [3] (AD patient CSF 8189_Visit 3 pretreated with 10 ng/ml) and with ICR mice [3] (AD patient CSF 8211_Visit 2 pretreated with 10 ng/ml) were 90.7%, 83.1% and 90.0%, respectively. Moreover, the “improvement of spontaneous alternation by 6E4HV0LV0 pretreatment” value is recorded as ≥ 40% in the test with ICR mice [3] (in 6 out of the 15 AD patient CSF samples) and ≥ 80% in the test with ICR mice [3] (in 7 out of the 15 AD patient CSF samples). Besides, the “effect of 6E4HV0LV0 pretreatment on cognitive function impairment by normal CSF” value in the test with ICR mice [3] (the one normal CSF (1 out of 11) that impaired cognitive function) was “did not improve”.

Source of the values: patent publication US10232056B2, “Method for measuring toxicity of human CSF” (KYOWA HAKKO KIRIN CO., LTD., priority 2014, dated 2019).
